T1: Boi2 SH3 (BOI2_YEAST), P39969
T1 chain: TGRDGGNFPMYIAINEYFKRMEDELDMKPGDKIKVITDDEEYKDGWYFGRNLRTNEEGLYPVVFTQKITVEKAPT

T2: Boi1 SH3 (BOI1_YEAST), P38041
T2 chain: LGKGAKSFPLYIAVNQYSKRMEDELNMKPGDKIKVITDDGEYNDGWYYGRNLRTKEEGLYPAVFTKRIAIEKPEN

T3: Rvs167 SH3 (RV167_YEAST), P39743
T3 chain: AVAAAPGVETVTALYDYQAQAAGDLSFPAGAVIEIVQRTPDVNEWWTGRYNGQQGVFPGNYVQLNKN

T4: Yfr024 SH3 (LSB3_YEAST), P43603
T4 chain: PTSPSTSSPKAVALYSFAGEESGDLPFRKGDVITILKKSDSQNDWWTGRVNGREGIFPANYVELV

T5: Yhr016c SH3 (YSC84_YEAST), P32793
T5 chain: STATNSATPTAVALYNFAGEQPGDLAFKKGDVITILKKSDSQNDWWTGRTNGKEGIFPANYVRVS

B1: YER068W 519-532 (peptide)
chain: TKTPTQPIRLQTVS
B2: YOR191W 815-828 (peptide)
chain: TGFPPTPLKREGVG
B3: YOR367W 153-166 (peptide)
chain: TKKPRPPVKSKPKH
B4: YGL207W 463-476 (peptide)
chain: TKVPSKPDRNSKIL
B5: YOL090W 24-37 (peptide)
chain: TGLPKKPLKTIRLV
B6: YDL171C 572-585 (peptide)
chain: TNPPIDPIREANVM
B7: YKL148C 467-480 (peptide)
chain: TLQPGLPHKPLPSD
B8: YDL164C 384-397 (peptide)
chain: TLRPGIPLKPMLAK
B9: YLR289W 228-241 (peptide)
chain: TGRPDKPFRALLVD
B10: YJL045W 461-474 (peptide)
chain: TLQPGLPHKPLASN
B11: YMR042W 23-36 (peptide)
chain: TNEPTKPIRRLSTP
B12: YBR208C 872-885 (peptide)
chain: TPAPNLPEKTRLAL
B13: YDL113C 210-223 (peptide)
chain: TLIPPIPEKQSIKN
B14: YBR140C 1667-1680 (peptide)
chain: TNYPVNPEKHEMDK
B15: YHL007C 507-520 (peptide)
chain: THAPTTPNRTSPNR

One assay concerns the target T1, Boi2 SH3 (BOI2_YEAST), P39969. Description: SPOT array.
B1: the normalised SPOT signal, Boehringer light units (BLU); mean over the file's lines of this peptide turned out to be 60.2.

With B2, the normalised SPOT signal, Boehringer light units (BLU); mean over the file's lines of this peptide came out at 54.

Consider B3, for which the normalised SPOT signal, Boehringer light units (BLU); mean over the file's lines of this peptide is 25.1.

In turn, B4 yielded a normalised SPOT signal, Boehringer light units (BLU); mean over the file's lines of this peptide of 27.3.

The molecule B5 gave a normalised SPOT signal, Boehringer light units (BLU); mean over the file's lines of this peptide of 74.6.

The molecule B6 showed a normalised SPOT signal, Boehringer light units (BLU); mean over the file's lines of this peptide of 55.4.

Regarding B7, the normalised SPOT signal, Boehringer light units (BLU); mean over the file's lines of this peptide worked out at 53.3.

Molecule B8 showed a normalised SPOT signal, Boehringer light units (BLU); mean over the file's lines of this peptide of 49.9.

The molecule B9 registered a normalised SPOT signal, Boehringer light units (BLU); mean over the file's lines of this peptide of 47.3.

As to B10, the normalised SPOT signal, Boehringer light units (BLU); mean over the file's lines of this peptide came to 62.6.

Take B11: the normalised SPOT signal, Boehringer light units (BLU); mean over the file's lines of this peptide stood at 0.

On to B12, for which the normalised SPOT signal, Boehringer light units (BLU); mean over the file's lines of this peptide was found to be 38.3.

Consider B13, for which the normalised SPOT signal, Boehringer light units (BLU); mean over the file's lines of this peptide was found to be 37.5.

As for B14, the normalised SPOT signal, Boehringer light units (BLU); mean over the file's lines of this peptide was 32.3.

For B15, the normalised SPOT signal, Boehringer light units (BLU); mean over the file's lines of this peptide came out at 14.4.

For another assay, the target named is T2, Boi1 SH3 (BOI1_YEAST), P38041. Description: SPOT array.
With B1, the normalised SPOT signal, Boehringer light units (BLU); mean over the file's lines of this peptide was 139.

Take B2: the normalised SPOT signal, Boehringer light units (BLU); mean over the file's lines of this peptide was 7.5.

In turn, B3 showed a normalised SPOT signal, Boehringer light units (BLU); mean over the file's lines of this peptide of 61.5.

B4: the normalised SPOT signal, Boehringer light units (BLU); mean over the file's lines of this peptide amounted to 152.

Regarding B5, the normalised SPOT signal, Boehringer light units (BLU); mean over the file's lines of this peptide is 57.7.

In the case of B6, the normalised SPOT signal, Boehringer light units (BLU); mean over the file's lines of this peptide was found to be 136.

Turning to B7, the normalised SPOT signal, Boehringer light units (BLU); mean over the file's lines of this peptide amounted to 82.6.

B8: the normalised SPOT signal, Boehringer light units (BLU); mean over the file's lines of this peptide worked out at 105.

Turning to B9, the normalised SPOT signal, Boehringer light units (BLU); mean over the file's lines of this peptide turned out to be 110.

In the case of B10, the normalised SPOT signal, Boehringer light units (BLU); mean over the file's lines of this peptide is 91.4.

In the case of B11, the normalised SPOT signal, Boehringer light units (BLU); mean over the file's lines of this peptide turned out to be 111.

For the molecule B12, the normalised SPOT signal, Boehringer light units (BLU); mean over the file's lines of this peptide was found to be 82.2.

For the molecule B13, the normalised SPOT signal, Boehringer light units (BLU); mean over the file's lines of this peptide was 82.1.

On to B14, for which the normalised SPOT signal, Boehringer light units (BLU); mean over the file's lines of this peptide turned out to be 82.1.

Molecule B15 displayed a normalised SPOT signal, Boehringer light units (BLU); mean over the file's lines of this peptide of 74.3.

The target in a further assay is T3, Rvs167 SH3 (RV167_YEAST), P39743. The assay can be described thus: SPOT array.
The molecule B1 showed a normalised SPOT signal, Boehringer light units (BLU); mean over the file's lines of this peptide of 104.

With B2, the normalised SPOT signal, Boehringer light units (BLU); mean over the file's lines of this peptide came to 58.1.

On to B3, for which the normalised SPOT signal, Boehringer light units (BLU); mean over the file's lines of this peptide came out at 54.9.

Molecule B4 came in with a normalised SPOT signal, Boehringer light units (BLU); mean over the file's lines of this peptide of 44.

Turning to B5, the normalised SPOT signal, Boehringer light units (BLU); mean over the file's lines of this peptide amounted to 78.4.

As to B6, the normalised SPOT signal, Boehringer light units (BLU); mean over the file's lines of this peptide was determined as 27.6.

Molecule B7 showed a normalised SPOT signal, Boehringer light units (BLU); mean over the file's lines of this peptide of 74.3.

Consider B8, for which the normalised SPOT signal, Boehringer light units (BLU); mean over the file's lines of this peptide came out at 118.

Consider B9, for which the normalised SPOT signal, Boehringer light units (BLU); mean over the file's lines of this peptide was 789.

In the case of B10, the normalised SPOT signal, Boehringer light units (BLU); mean over the file's lines of this peptide came out at 16.3.

B11: the normalised SPOT signal, Boehringer light units (BLU); mean over the file's lines of this peptide was 46.4.

B12 yielded a normalised SPOT signal, Boehringer light units (BLU); mean over the file's lines of this peptide of 65.7.

B13 displayed a normalised SPOT signal, Boehringer light units (BLU); mean over the file's lines of this peptide of 38.

In turn, B14 yielded a normalised SPOT signal, Boehringer light units (BLU); mean over the file's lines of this peptide of 62.1.

Consider B15, for which the normalised SPOT signal, Boehringer light units (BLU); mean over the file's lines of this peptide turned out to be 552.

In the next assay the target is T4, Yfr024 SH3 (LSB3_YEAST), P43603. The assay can be described thus: SPOT array.
In the case of B1, the normalised SPOT signal, Boehringer light units (BLU); mean over the file's lines of this peptide was 1360.

B2 yielded a normalised SPOT signal, Boehringer light units (BLU); mean over the file's lines of this peptide of 1730.

B3: the normalised SPOT signal, Boehringer light units (BLU); mean over the file's lines of this peptide was 344.

B4 gave a normalised SPOT signal, Boehringer light units (BLU); mean over the file's lines of this peptide of 4410.

In turn, B5 had a normalised SPOT signal, Boehringer light units (BLU); mean over the file's lines of this peptide of 746.

On to B6, for which the normalised SPOT signal, Boehringer light units (BLU); mean over the file's lines of this peptide turned out to be 14.7.

Regarding B7, the normalised SPOT signal, Boehringer light units (BLU); mean over the file's lines of this peptide is 295.

In the case of B8, the normalised SPOT signal, Boehringer light units (BLU); mean over the file's lines of this peptide is 303.

As to B9, the normalised SPOT signal, Boehringer light units (BLU); mean over the file's lines of this peptide is 5660.

Regarding B10, the normalised SPOT signal, Boehringer light units (BLU); mean over the file's lines of this peptide worked out at 3.9.

Molecule B11 came in with a normalised SPOT signal, Boehringer light units (BLU); mean over the file's lines of this peptide of 4980.

As to B12, the normalised SPOT signal, Boehringer light units (BLU); mean over the file's lines of this peptide worked out at 6030.

B13 returned a normalised SPOT signal, Boehringer light units (BLU); mean over the file's lines of this peptide of 259.

B14: the normalised SPOT signal, Boehringer light units (BLU); mean over the file's lines of this peptide was 0.

In turn, B15 came in with a normalised SPOT signal, Boehringer light units (BLU); mean over the file's lines of this peptide of 14600.

In a further assay the target is T5, Yhr016c SH3 (YSC84_YEAST), P32793. Description: SPOT array.
B1 registered a normalised SPOT signal, Boehringer light units (BLU); mean over the file's lines of this peptide of 234.

B2 came in with a normalised SPOT signal, Boehringer light units (BLU); mean over the file's lines of this peptide of 430.

B3: the normalised SPOT signal, Boehringer light units (BLU); mean over the file's lines of this peptide came out at 127.

In turn, B4 showed a normalised SPOT signal, Boehringer light units (BLU); mean over the file's lines of this peptide of 416.

Consider B5, for which the normalised SPOT signal, Boehringer light units (BLU); mean over the file's lines of this peptide amounted to 144.

For B6, the normalised SPOT signal, Boehringer light units (BLU); mean over the file's lines of this peptide came to 110.

In the case of B7, the normalised SPOT signal, Boehringer light units (BLU); mean over the file's lines of this peptide was found to be 352.

As for B8, the normalised SPOT signal, Boehringer light units (BLU); mean over the file's lines of this peptide was 229.

B9 yielded a normalised SPOT signal, Boehringer light units (BLU); mean over the file's lines of this peptide of 656.

On to B10, for which the normalised SPOT signal, Boehringer light units (BLU); mean over the file's lines of this peptide was 86.1.

B11 gave a normalised SPOT signal, Boehringer light units (BLU); mean over the file's lines of this peptide of 1280.

For B12, the normalised SPOT signal, Boehringer light units (BLU); mean over the file's lines of this peptide was 221.

For the molecule B13, the normalised SPOT signal, Boehringer light units (BLU); mean over the file's lines of this peptide turned out to be 324.

Turning to B14, the normalised SPOT signal, Boehringer light units (BLU); mean over the file's lines of this peptide was determined as 136.

Take B15: the normalised SPOT signal, Boehringer light units (BLU); mean over the file's lines of this peptide came out at 4050.

(Values after publication PMC314469, “Protein Interaction Networks by Proteome Peptide Scanning” (PLoS Biology, 2004).)
